Data reported in patent US20230213527A1 (QUANTUM SI, published 2023).
Square brackets hold non-standard residues; d marks the D form. Primed or numbered codes have the meaning given here. Ends that are not written are not given here. Lys(N3) = [N-]=[N+]=NCCCC[C@H](N)C(=O)O; Met(O) = CS(=O)CC[C@H](N)C(=O)O; FITC′ = not defined here

How the values were obtained:
[1] = target: T1, … (SEQ ID NO: 801), state with N-terminal methionine (MFAYPDDD) (not fully specified (C-terminus); also: C-terminal azidolysine conjugated to DNA-streptavidin linker); assay: single-molecule on-chip dynamic sequencing
T1 construct: residue range inferred from the recognized N-terminal residue
T1 peptide: MFAYPDDD

[2] = target: T2, RLMoFAYPDDD (SEQ ID NO: 858), state with N-terminal methionine sulfoxide (MoFAYPDDD) (also: C-terminal azidolysine conjugated to DNA-streptavidin linker); assay: single-molecule on-chip dynamic sequencing
T2 construct: residue range inferred
T2 peptide: [Met(O)]FAYPDDD[Lys(N3)]

[3] = target: T3, labeled peptide with N-terminal methionine (XAKLDEESILKQK-FITC, SEQ ID NO: 833, X = M); assay: fluorescence polarization titration, FITC-labeled peptide (FIG. 9D)
T3 peptide: MAKLDEESILKQK-{FITC′}
Protocol: As an example, methionine oxidation was examined. The thioether moiety of the methionine side chain is susceptible to oxidation during peptide synthesis and sequencing. […] It was determined computationally that methionine sulfoxide is highly unfavorable in the PS961 NAA binding pocket and that non-polar residues are preferred at P2 (FIG. 9E). The synthetic peptide […] (SEQ ID NO: 801) was sequenced, and two populations of traces with distinct kinetic signatures were observed—a first population containing leucine recognition with median PD of 0.86 s, and a second population with median PD of 0.35 s (FIG. 4C).
Binding affinity was measured by polarization using a labeled peptide. The polarization response and total intensity measurements were carried out at 20° C. on a microplate fluorometer with 480 nm excitation and 530 nm emission. The interaction of recognizer with labeled peptide containing a target N-terminal residue (XAKLDEESILKQK-FITC (SEQ ID NO: 833)) was performed in PBS buffer at pH 7.4 and readings were collected after 30 min. Multiple analyses were performed at increasing recognizer concentration at a fixed concentration of a target peptide to obtain a titration curve. An equilibrium polarization response at each concentration was plotted and fit to calculate the KD.

[4] = target: T4, synthetic peptide … (SEQ ID NO: 794), state with N-terminal isoleucine (IFAG) (human, not fully specified (C-terminus); also: C-terminal azidolysine conjugated to DNA-streptavidin linker); assay: single-molecule on-chip dynamic sequencing with PS610, PS961, PS691, PhTET2 and PhTET3
T4 construct: residue range inferred from the recognized N-terminal residue
T4 peptide: IFAG
Protocol: (§1) The transition from leucine to isoleucine recognition by PS961 is readily identified as a sharp change in average PD. This overall pattern is replicated across many instances of sequencing of the same peptide, with similar PD statistics across traces, as each peptide molecule follows the same reaction pathway over the course of the sequencing run (FIGS. 3B-3C).
(§2) The semiconductor chip was placed in the sequencing device and a chip check was performed to test electronic circuit function and to optimize laser coupling alignment. The chip was then removed from the device socket and the chip was washed twice with 50 μL of 70% isopropanol, followed by four washes with 30 μL of wash buffer (50 mM MOPS pH 8.0, 60 mM potassium acetate, 50 mM glucose, 20 mM magnesium acetate, and surfactant mix) through a flow cell attached to the chip. […] The laser was unblocked and the occupancy percentage (target 10-30%, Poisson distributed) was recorded by acquiring a photobleaching signal from a fluorophore attached to the peptide complex during 5 min of laser illumination. For NAA recognition-only assays, after peptide loading, labeled recognizer was added to a final concentration of 50 nM PS610, 100 nM PS691, or 250 nM PS961 (as indicated according to the experiment), and data was recorded for 10 hours. […] Data was recorded for 15 min. […] The laser was then unblocked, and data was recorded for 10 hours.

[5] = target: T5, synthetic peptide … (SEQ ID NO: 794), state with N-terminal leucine (LIFAG) (human, not fully specified (C-terminus); also: C-terminal azidolysine conjugated to DNA-streptavidin linker); assay: as above
T5 construct: residue range inferred from the recognized N-terminal residue
T5 peptide: LIFAG
Protocol: as §1, §2

[6] = target: T6, … (SEQ ID NO: 798), state with N-terminal leucine (LAFAYPDDD) (not fully specified (C-terminus); also: C-terminal azidolysine conjugated to DNA-streptavidin linker); assay: single-molecule on-chip dynamic sequencing; recognition of N-terminal leucine
T6 construct: residue range inferred from the recognized N-terminal residue
T6 peptide: LAFAYPDDD
Protocol: (§3) To illustrate how the kinetic parameters acquired from sequencing are sensitive to changes in sequence composition, sequencing was performed with a set of three peptides […] (SEQ ID NO: 798), […] (SEQ ID NO: 799), and […] (SEQ ID NO: 800)—that differ only at a single position, located immediately downstream from the PS961 N-terminal target leucine.
(§4) The semiconductor chip was placed in the sequencing device and a chip check was performed to test electronic circuit function and to optimize laser coupling alignment. The chip was then removed from the device socket and the chip was washed twice with 50 μL of 70% isopropanol, followed by four washes with 30 μL of wash buffer (50 mM MOPS pH 8.0, 60 mM potassium acetate, 50 mM glucose, 20 mM magnesium acetate, and surfactant mix) through a flow cell attached to the chip. A second chip check was then performed. The laser was then blocked via an integrated software-controlled shutter, peptide complex was added to a final concentration of 1-10 nM and mixed thoroughly, and the chip was incubated for 15 min. The chip was then washed six times with wash buffer, followed by addition of an imaging solution (wash buffer with 5 mM Trolox and an oxygen scavenging system). The laser was unblocked and the occupancy percentage (target 10-30%, Poisson distributed) was recorded by acquiring a photobleaching signal from a fluorophore attached to the peptide complex during 5 min of laser illumination. For NAA recognition-only assays, after peptide loading, labeled recognizer was added to a final concentration of 50 nM PS610, 100 nM PS691, or 250 nM PS961 (as indicated according to the experiment), and data was recorded for 10 hours.

[7] = target: T7, … (SEQ ID NO: 800), state with N-terminal leucine (LVFAYPDDD) (not fully specified (C-terminus); also: C-terminal azidolysine conjugated to DNA-streptavidin linker); assay: as above
T7 construct: residue range inferred from the recognized N-terminal residue
T7 peptide: LVFAYPDDD
Protocol: as §3, §4

[8] = target: T8, … (SEQ ID NO: 799), state with N-terminal leucine (LIFAYPDDD) (not fully specified (C-terminus); also: C-terminal azidolysine conjugated to DNA-streptavidin linker); assay: as above
T8 construct: residue range inferred from the recognized N-terminal residue
T8 peptide: LIFAYPDDD
Protocol: as §3, §4

B1: PS961 (designed binder)
chain: MPTAASATESAIEDTPAPARPEVDGRTKPKRQPRYHVVLWDDDDHTYQYVVVMLRSLFGHPPSRGYRMAKEMDTQGRVIVLTTTREHAELKRDQIHAFGRDRLLARSKGSMKASIEAEE
notes: also called PS961 (L, I, V); PS961 (LIV)
[1]
  binding result: binds
[2]
  binding result: no binding (tested: 250 nM PS961)
[3]
  Kd: 947 nM
[4]
  binding result: binds
[5]
  binding result: binds
[6]
  median pulse duration (PD): 1.29 s
[7]
  median pulse duration (PD): 4.21 s
[8]
  median pulse duration (PD): 2.22 s
